Source: US20070253950A1 (Pfizer, published 2007)

Molecular target: T1, human RAGE-strep tag fusion protein (human, UniProt Q15109 23-344)
T1 construct: monomeric soluble human RAGE; also called hRAGE-SA; soluble human streptavidin-tagged RAGE
Test: BIACORE capture assay: hRAGE-SA over antibody captured on anti-human Fc; 1:1 Langmuir global fit; FC3
Method: The assays were performed by coating anti-human Fc antibodies onto a CM5 BIA chip with 5000 RU (pH 5.0, 7 min.) in flow cells 1-4. Each antibody was captured by flowing at 2.0 μg/ml over the anti-Fc antibodies in flow cells 2-4 (flow cell 1 was used as a reference).

T1 sequence (Q15109 other isoform, or with tags, fused parts or gaps): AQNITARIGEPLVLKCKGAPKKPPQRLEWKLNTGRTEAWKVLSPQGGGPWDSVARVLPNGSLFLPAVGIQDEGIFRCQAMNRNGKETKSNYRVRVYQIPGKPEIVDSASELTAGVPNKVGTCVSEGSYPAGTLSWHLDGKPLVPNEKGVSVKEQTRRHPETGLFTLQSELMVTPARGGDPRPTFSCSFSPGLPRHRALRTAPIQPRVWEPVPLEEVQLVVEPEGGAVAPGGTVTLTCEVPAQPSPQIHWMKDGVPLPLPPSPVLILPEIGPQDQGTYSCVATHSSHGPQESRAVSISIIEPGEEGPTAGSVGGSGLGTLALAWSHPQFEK

- Kd: 7.33 nM
- koff: 0.0271 s⁻¹
- kon: 3.7e+06 M⁻¹ s⁻¹
B1: chimeric XT-M4 (antibody, V domains shown)
VH: EVQLVESGGGLVQPGRSLKLSCVVSGFTFNNYWMTWIRQTPGKGLEWVASINNSGDNTYYPDSVKDRFTISRDNAKSTLYLQMNSLRSEDTATYYCTRGGDITTGFDYWGQGVMVTVSS
VL: DIQMTQSPSSMSVSLGDTITITCRASQDVGIYVNWFQQKPGKSPRRMIYRATNLADGVPSRFSGSRSGSIYSLTISSLESEDVADYHCLEFDEHPLTFGSGTKVEIK
modifications: N-linked oligosaccharide at Asn52 (CDR2) on part of the heavy chains
notes: rat XT-M4 variable regions fused to human kappa light chain and human IgG1 heavy chain constant regions; L234A and G237A in the human IgG1 Fc region; also called chimeric antibody XT-M4; XT-M4-A-1
